The source of these data is paper PMC6341108, “Anti-LRP5/6 VHHs promote differentiation of Wnt-hypersensitive intestinal stem cells” (Nature Communications, 2019).

Assay [1] addresses LRP6 P3E3P4E4 (Homo sapiens) (UniProt O75581). As to conditions: cited from earlier work.
Assay [2] addresses LRP6 P1E1P2E2 (Homo sapiens) (UniProt O75581). The settings on record: cited from earlier work.
Assay [3] has as its target T1, human LRP6 β-propeller-EGF modules P3E3P4E4 (Homo sapiens).
T1 chain: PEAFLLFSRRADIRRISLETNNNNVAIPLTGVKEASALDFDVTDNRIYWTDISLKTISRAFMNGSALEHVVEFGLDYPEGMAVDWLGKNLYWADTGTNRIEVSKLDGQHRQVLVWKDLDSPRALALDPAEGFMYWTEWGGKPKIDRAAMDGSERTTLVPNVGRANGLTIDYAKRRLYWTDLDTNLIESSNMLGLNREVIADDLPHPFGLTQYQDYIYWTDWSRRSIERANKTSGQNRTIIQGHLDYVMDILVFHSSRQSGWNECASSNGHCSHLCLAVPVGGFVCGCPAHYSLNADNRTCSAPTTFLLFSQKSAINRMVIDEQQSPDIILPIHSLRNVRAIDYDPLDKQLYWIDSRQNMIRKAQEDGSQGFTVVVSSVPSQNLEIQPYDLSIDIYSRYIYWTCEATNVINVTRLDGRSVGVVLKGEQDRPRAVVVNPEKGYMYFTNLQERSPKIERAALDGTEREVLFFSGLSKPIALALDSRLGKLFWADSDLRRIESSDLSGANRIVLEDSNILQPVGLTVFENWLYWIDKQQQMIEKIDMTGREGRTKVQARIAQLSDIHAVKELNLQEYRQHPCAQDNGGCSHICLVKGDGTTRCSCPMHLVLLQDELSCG
Nature of the assay: cell-based or functional assay.

The target in assay [4] is T1, human LRP6 β-propeller-EGF modules …. Nature of the assay: ITC; 10 µM LRP6^P3E3P4E4 in the cell, 100 µM VHH injected, DPBS, 25 °C, triplicate. As to conditions: both partners purified.
Assay [5] addresses T2, human LRP6 β-propeller-EGF modules P3E3P4E4 (human, UniProt O75581 639-1244).
T2 chain: T1 chain
Nature of the assay: ITC. For orientation: ITC needs no label: the signal is the heat of the interaction.

Assay [6] deals with T1, human LRP6 β-propeller-EGF modules …. Nature of the assay: quartz crystal microbalance (QCM); LRP6^P3E3P4E4 immobilised by amine coupling on an Attana LNB chip; VHHs injected (0.03-0.25 µg/mL) in HBS-T, single-cycle kinetics, 22 °C, 1:1 fitting model. As to conditions: both partners purified.
In assay [7] the target is T3, human LRP6 β-propeller-EGF modules P3E3P4E4 (Homo sapiens).
T3 construct: low-density lipoprotein receptor-related protein 6 (LRP6), human, domains P3E3P4E4; Cloned with an N-terminal cystatin secretion signal; also called LRP6^P3E3P4E4; LRP6 P3E3P4E4; source: HEK293 GnTI- cells, transiently co-expressed with human MESD, secreted, purified (Ni-Sepharose excel, SEC)
T3 chain: T1 chain
Nature of the assay: ITC; 10 µM LRP6 P3E3P4E4 in the sample cell, 100 µM VHH injected, DPBS, 25 °C; triplicate. The settings on record: both partners purified.

Assay [8] addresses T4, human LRP6 β-propeller-EGF modules P3E3P4E4 (Homo sapiens).
T4 construct: Low-density lipoprotein receptor-related protein 6 (LRP6), human, domains P3E3P4E4; the methods say Uniprot residues 639-1244, the results say UNIPROT residues 629-1244; Expressed from pUPE107.03 with an N-terminal cystatin secretion signal; also called LRP6^P3E3P4E4; LRP6 P3E3P4E4; source: HEK293 GnTI- cells, transiently co-expressed with human MESD, secreted, purified (Ni-Sepharose excel, SEC …)
T4 chain: T1 chain
Nature of the assay: quartz crystal microbalance (QCM); LRP6 P3E3P4E4 immobilised by amine coupling on an Attana LNB chip; VHH injected at four rising concentrations (single cycle kinetics); 22 °C, HBS-T, 25 µL/min; 1:1 fitting model. As to conditions: both partners purified.

“And” between values parts separate entries of the source, which are not always exact repeats. Equal values may be shown once.

Sequence of LRP6 P3E3P4E4 (Homo sapiens) (O75581 631-1246): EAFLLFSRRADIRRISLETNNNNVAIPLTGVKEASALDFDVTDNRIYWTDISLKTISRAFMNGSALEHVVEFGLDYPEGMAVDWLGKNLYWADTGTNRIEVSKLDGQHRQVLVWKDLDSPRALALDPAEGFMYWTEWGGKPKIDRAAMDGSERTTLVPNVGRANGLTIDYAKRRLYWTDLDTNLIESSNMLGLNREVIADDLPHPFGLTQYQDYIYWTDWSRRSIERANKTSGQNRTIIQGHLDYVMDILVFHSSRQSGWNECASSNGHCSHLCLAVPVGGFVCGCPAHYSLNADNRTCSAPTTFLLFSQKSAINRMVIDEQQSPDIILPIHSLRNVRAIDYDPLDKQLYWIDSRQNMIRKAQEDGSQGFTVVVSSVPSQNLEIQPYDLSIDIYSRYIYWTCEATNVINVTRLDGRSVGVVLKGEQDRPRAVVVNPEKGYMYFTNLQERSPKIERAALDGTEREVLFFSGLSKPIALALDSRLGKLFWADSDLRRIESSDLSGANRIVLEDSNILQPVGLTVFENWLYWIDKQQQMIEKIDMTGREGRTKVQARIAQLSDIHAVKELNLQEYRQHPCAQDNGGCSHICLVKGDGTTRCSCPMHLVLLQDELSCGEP
Sequence of LRP6 P1E1P2E2 (Homo sapiens) (O75581 20-630): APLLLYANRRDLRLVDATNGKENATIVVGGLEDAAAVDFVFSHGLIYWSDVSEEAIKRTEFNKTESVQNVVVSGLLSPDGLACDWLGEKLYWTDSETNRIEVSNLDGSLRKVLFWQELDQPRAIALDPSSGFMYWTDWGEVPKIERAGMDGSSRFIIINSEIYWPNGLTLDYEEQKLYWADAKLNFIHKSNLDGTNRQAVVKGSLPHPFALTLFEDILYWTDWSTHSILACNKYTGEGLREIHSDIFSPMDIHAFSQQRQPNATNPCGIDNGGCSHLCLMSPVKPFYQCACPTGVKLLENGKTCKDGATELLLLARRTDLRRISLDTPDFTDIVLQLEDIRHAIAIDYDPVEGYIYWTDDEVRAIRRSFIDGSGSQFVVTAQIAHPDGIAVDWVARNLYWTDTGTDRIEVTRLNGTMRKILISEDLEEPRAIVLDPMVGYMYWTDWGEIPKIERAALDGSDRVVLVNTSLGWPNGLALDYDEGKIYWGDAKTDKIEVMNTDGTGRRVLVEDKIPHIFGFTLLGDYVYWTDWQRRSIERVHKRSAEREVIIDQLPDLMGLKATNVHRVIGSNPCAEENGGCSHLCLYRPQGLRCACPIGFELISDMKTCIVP

Regarding DKK1 DKK1_C (from UniProt O94907), the Kd in assay [1] and in assay [2] was 70 nM in each case.

B1: anti-LRP6 VHH L-P2-B10 with C-terminal V5-FLAG3-His6-tag (VHH)
VHH: EVQLQESGGCLVQAGGSLRLSCAASGSTFSTYTIGWFRQAPGKEREFVAAIHWDGGQTYYADSVKGRFTISRDNAKNTVYLQMNSLKPEDTAVYYCAARGRRYFDFTYSDVYDYWGQGTQVTVSS
notes: Selected by CIS display from a fully synthetic VHH library; also called anti-LRP6^P3E3P4E4 VHH; anti-LRP5/6^P3 VHH; source: E. coli BL21 (BL21-Gold), purified (IMAC, SEC Superdex 75); not shown: V5, C-terminal, kept; FLAG3, C-terminal, kept; His6, C-terminal, kept
Turning to B1, in assay [3], the “IC50 of inhibition of cellular responses to Wnt3a (Wnt luciferase reporter, HEK293T); blocks Wnt3a with LRP6” value turned out to be 82 nM; the “IC50 of inhibition of cellular responses to the combination of Wnt3a and R-spondin1 (Wnt luciferase reporter, HEK293T); blocks Wnt3a with LRP6” value worked out at 40 nM. For the same molecule, in assay [4], the Kd – broadly, the constant that tells how readily two partners part at equilibrium – was less than 40 nM and the stoichiometry N (commonly a count of units in the complex or per binding partner) is 1. The same molecule registered a Kd in assay [5] of 12.8 nM. In assay [6], the koff (usually the first-order rate constant of dissociation) is approximately 0.0001 s⁻¹ and the kon (commonly a measure of how fast the partners come together) was approximately 100000 M⁻¹ s⁻¹.

B2: anti-LRP6 VHH L-P2-B10 (VHH)
VHH: B1 VHH
notes: they are in the deposited structure of its complex with LRP6 P3E3P4E4 (PDB 6H15 or 6H16); Selected by CIS display from a fully synthetic VHH library; source: E. coli BL21, purified (IMAC, SEC); not shown: V5, C-terminal, kept; FLAG3, C-terminal, kept; His6, C-terminal, kept
For B2, in assay [7], the Kd is 14.5 nM and 11.9 nM and 12.2 nM; the “stoichiometry N” value was 1.09 and 1.08 and 1.15.

B3: anti-LRP6 VHH L-P2-B10, C-terminal V5-FLAG3-His6-tagged (VHH)
VHH: B1 VHH
notes: also in the deposited structure of the complex with LRP6 P3E3P4E4; Selected by CIS display from a fully synthetic VHH library; source: E. coli BL21 Gold, purified (IMAC, SEC Superdex 75); not shown: V5, C-terminal, kept; FLAG3, C-terminal, kept; His6, C-terminal, kept
As for B3, in assay [8], the Kd worked out at 0.8 nM, the koff came to 0.00014 s⁻¹ and the association rate constant (kon) was determined as 180000 M⁻¹ s⁻¹.

B4: anti-LRP6 VHH L-P2-D07, C-terminal V5-FLAG3-His6-tagged (VHH)
VHH: EVQLQESGGGLVQAGGSLRLSCAASGRTFSIYTIGWFRQAPGKEREFVAEITWSGGSTYYADSVKGRFTISRDNAKNTVYLQMNSLKPEDTAVYYCAAITYTRGIYKYWGQGTQVTVSS
notes: also in the deposited structure of the complex with LRP6 P3E3P4E4; Selected by CIS display from a fully synthetic VHH library; also called L-P2-D07-V5-Flag3-His6; source: E. coli BL21 Gold, purified (IMAC, SEC Superdex 75); not shown: V5, C-terminal, kept; FLAG3, C-terminal, kept; His6, C-terminal, kept
In the case of B4, in assay [8], the Kd stood at 0.4 nM, the koff is 0.00015 s⁻¹ and the kon was 370000 M⁻¹ s⁻¹.

B5: anti-LRP6 VHH L-P2-D07 (VHH)
VHH: B4 VHH
notes: as for B2
Turning to B5, in assay [7], the Kd was 30.3 nM and 35.7 nM and 29.4 nM; the “stoichiometry N” value is 0.921 and 0.893 and 0.881.

B6: anti-LRP6 VHH L-P2-D07 with C-terminal V5-FLAG3-His6-tag (VHH)
VHH: B4 VHH
notes: as for B1
Regarding B6, in assay [3], the “IC50 of inhibition of cellular responses to Wnt3a (Wnt luciferase reporter, HEK293T); blocks Wnt3a with LRP6” value was 94 nM; the “IC50 of inhibition of cellular responses to the combination of Wnt3a and R-spondin1 (Wnt luciferase reporter, HEK293T); blocks Wnt3a with LRP6” value was determined as 40 nM. In assay [4], the Kd was less than 40 nM and the “stoichiometry N” value came to 1. In assay [6], this molecule yielded a koff of approximately 0.0001 s⁻¹ and a kon of approximately 100000 M⁻¹ s⁻¹.

B7: anti-LRP6 VHH L-P2-H07, C-terminal V5-FLAG3-His6-tagged (VHH)
VHH: EVQLQESGGGLVQAGGSLRLSCAASGDIISSYRMGWFRQAPGKEREFVSDITPSIGHTYYADSVKGRFTISRDNAKNTVYLQMNSLKPEDTAVYYCRAVDRSYRYPYEYWGQGTQVTVSS
notes: Selected by CIS display from a fully synthetic VHH library; No structure of its complex was deposited; source: E. coli BL21 Gold, purified (IMAC, SEC Superdex 75); not shown: V5, C-terminal, kept; FLAG3, C-terminal, kept; His6, C-terminal, kept
B7 gave an equilibrium dissociation constant (Kd) in assay [5] of 17.5 nM. In assay [8], this molecule came in with an equilibrium dissociation constant (Kd) of 2.3 nM, a koff of 0.00018 s⁻¹ and a kon of 81000 M⁻¹ s⁻¹.
